Measurements: US20240075137A1 (COMPUGEN, published 2024)
Read-outs that look alike come from different tables or passages of the source.

T1: human PVRIG on cells (human, UniProt Q6DKI7 1-326)
T1 construct: whole, on cells; over-expressed on HEK cells or endogenous on Jurkat and CD8 T cells; also called hPVRIG; HEK hPVRIG cells
T1 sequence (looked up): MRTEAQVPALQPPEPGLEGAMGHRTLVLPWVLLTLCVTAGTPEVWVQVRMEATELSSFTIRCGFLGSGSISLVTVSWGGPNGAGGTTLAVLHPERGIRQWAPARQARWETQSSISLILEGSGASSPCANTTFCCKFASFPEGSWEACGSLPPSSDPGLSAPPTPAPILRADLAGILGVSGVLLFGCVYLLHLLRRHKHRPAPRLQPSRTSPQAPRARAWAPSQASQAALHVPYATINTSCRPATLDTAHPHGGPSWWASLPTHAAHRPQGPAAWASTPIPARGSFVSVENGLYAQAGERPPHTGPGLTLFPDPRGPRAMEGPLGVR

T2: cynomolgus PVRIG on cells (cynomolgus, UniProt A0A2K5WVV8 41-322)
T2 construct: whole, on cells; also called cPVRIG; expi cPVRIG cells
T2 sequence: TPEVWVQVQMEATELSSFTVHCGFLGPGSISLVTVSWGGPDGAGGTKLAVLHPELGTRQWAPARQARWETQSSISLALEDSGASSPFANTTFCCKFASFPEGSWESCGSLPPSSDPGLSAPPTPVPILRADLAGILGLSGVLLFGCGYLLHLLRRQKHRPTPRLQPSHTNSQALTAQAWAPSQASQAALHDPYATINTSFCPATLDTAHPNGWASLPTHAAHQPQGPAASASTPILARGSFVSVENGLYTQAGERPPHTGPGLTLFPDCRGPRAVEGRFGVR

T3: PVRIG (FACS-based competition assay of FIGS. 7 and 15) (Homo sapiens, UniProt Q6DKI7)
T3 construct: made because the format of the assay is only described in U.S. Ser. No. 15/048,967; also called human PVRIG
T3 sequence (receptor, looked up): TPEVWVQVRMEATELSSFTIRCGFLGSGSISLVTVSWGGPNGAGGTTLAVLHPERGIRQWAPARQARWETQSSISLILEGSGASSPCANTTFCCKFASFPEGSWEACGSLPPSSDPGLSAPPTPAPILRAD

T4: Mouse TIGIT-His (mouse, UniProt P86176)
T4 construct: also called mouse TIGIT monomer (prepared in-house)
T4 sequence (soluble monomer with His tag, looked up): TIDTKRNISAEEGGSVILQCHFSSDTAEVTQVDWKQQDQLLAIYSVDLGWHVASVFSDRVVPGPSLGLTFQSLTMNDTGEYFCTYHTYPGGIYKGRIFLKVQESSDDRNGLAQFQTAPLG

T5: human TIGIT on cells (human, UniProt Q495A1 22-141)
T5 construct: also called Expi293 human TIGIT over-expressing cells
T5 sequence: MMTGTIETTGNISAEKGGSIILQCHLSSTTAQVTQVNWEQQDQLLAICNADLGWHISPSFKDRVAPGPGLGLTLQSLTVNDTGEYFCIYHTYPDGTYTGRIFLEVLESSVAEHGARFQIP

T6: human TIGIT ECD with C-terminal polyhistidine tag (human, UniProt Q495A1 22-141)
T6 construct: in-house or Sino Biological; also called hTIGIT-HIS; human TIGIT-HIS
T6 sequence: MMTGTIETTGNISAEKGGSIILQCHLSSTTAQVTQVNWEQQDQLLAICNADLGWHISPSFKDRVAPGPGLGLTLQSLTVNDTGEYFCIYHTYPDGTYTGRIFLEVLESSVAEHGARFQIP

B1: CHA.7.548 (antibody, V domains shown)
VH: EVQLQQSGPELVKPGASVKISCKASGYTFTDYSMNWVKQSHGKSLEWIGDITPNNGSPNYNQKFKDKATLTVDKSSSTVYMELRSLTSEDSAVYYCASLFFDYWGHGTTLTVSS
VL: DIVMTQSPSSLSVSAGEKVTMSCKSSQSLLNSGNQKNYLAWYQQKPGQPPKLLIYGASTRDSGVPDRFTGSGSGTDFTLTITSVQAEDLAVYYCQNDHTYPYTFGGGTKLEIK
B2: CHA.9.547.1 (antibody, human IgG4 S228P, kappa, V domains shown)
VH: EVQLVESGGGLVQPGGSLRLSCAASGFTFSSYIMSWVRQAPGKGLEWVSTISGGGTNTYYADSVKGRFTISRDNSKNTLYLQMNSLRAEDTAVYYCAKWLLSYYAMDYWGQGTLVTVSS
VL: DIQMTQSPSSLSASVGDRVTITCRASQNINVWLTWYQQKPGKAPKLLIYKASNLHTGVPSRFSGSGSGTDFTLTISSLQPEDFATYYCQQGQSYPYTFGQGTKLEIKR
modifications: AF647 dye on the antibody in the FACS assay of FIG. 73
notes: also called CHA.9.547.1.H4(S241P)
B3: CHA.7.549 (antibody, V domains shown)
VH: QVQLQQPGTELVKPGASVKLSCKASGFTFTTHWMHWVRQRPGQGLEWIGNIYPSNGGSNYNEKFKTKATLTVDRSSSTAYMHLSSLTSEDSAVYYCARRVNWDGYYFDYWGQGTTLTVSS
VL: DIVMTQSQKFMSTSVGDRVSVTCKASQNVGTNVAWYQQKPGQSPKLLIYSASYRYSGVPDRFTGSGSGTDFTLTISNVQSEDLADYFCQQYNSYPLTFGGGTKLEIK
B4: CHA.7.550 (antibody, V domains shown)
VH: QVQLQESGTELVKPGASVKLSCKASGYTFTSYWIHWVKQRPGQGLEWIGNINPSNGGTNYNEKFKSKAALTVDKSSSTAYMQLSSLTSEDSAVYYCARRGLPYFFDYWGQGTTLTVSS
VL: DIVMTQSQKFMSTSVGDRVSVTCKGSQNVGYNVAWYQQKPGQSPKALVYSASDRHSGVPDRFAGSGSGTDFTLTISNVQSEDLAEYFCQQYNSYPLTFGAGTKLELK
B5: CPA.9.103 (fab) (Fab, V domains shown)
VH: EVQLVETGGGLIQPGGSLRLSCAASGFTVSSNYMSWVRQAPGKGLEWVSVIYSGGSTYYADSVKGRFTISRDNSKNTLYLQMNSLRAEDTAVYYCARGARPNGQYPYWGQGTLVTVSS
VL: DIQLTQSPSFLSASVGDRVTITCRASHGIKSLFSWYQQKPGKAPKLLIYAASTLQTGVPSRFSGSASGTEFTLTISSLQPEDFATYYCLQLDSFPTWTFGQGTKVEIK
notes: variant of CPA.9.059 screened as fab
B6: CPA.9.103 (antibody, human IgG4 S228P, kappa, V domains shown)
VH: EVQLVETGGGLIQPGGSLRLSCAASGFTVSSNYMSWVRQAPGKGLEWVSVIYSGGSTYYADSVKGRFTISRDNSKNTLYLQMNSLRAEDTAVYYCARGARPNGQYPYWGQGTLVTVSS
VL: DIQLTQSPSFLSASVGDRVTITCRASHGIKSLFSWYQQKPGKAPKLLIYAASTLQTGVPSRFSGSASGTEFTLTISSLQPEDFATYYCLQLDSFPTWTFGQGTKVEIKR
modifications: AF647 dye on the antibody in the FACS assay of FIG. 73
notes: fab form is m92; also called CPA.9.103.H4(S241P)
B7: CPA.9.101 (fab) (Fab, V domains shown)
VH: EVQLVETGGGLIQPGGSLRLSCAASGFTVSSNYMSWVRQAPGKGLEWVSVIYSGGSTYYADSVKGRFTISRDNSKNTLYLQMNSLRAEDTAVYYCARGAPLFGQYPYWGQGTLVTVSS
VL: DIQMTQSPSSLSASVGDRVTITCRASHAIASLFSWYQQKPGKAPKLLIYAASTLQTGVPSRFSGSASGTEFTLTISSLQPEDFATYYCLQLDSFPTWTFGQGTKVEIK
notes: as for B5

Key:
human PVRIG on cells [1] = molecular target: T1, human PVRIG on cells; assay: FACS, Jurkat cells, relative to control, 3.3ug/ml
[2] = molecular target: T2, cynomolgus PVRIG on cells; assay: FACS, expi cPVRIG over expi parental cells, 3.3ug/ml
human PVRIG on cells [3] = molecular target: T1, human PVRIG on cells; assay: FACS, human PBMC, CD56 int. NK cells, 10ug/ml
[4] = molecular target: T3, PVRIG (FACS-based competition assay of …); assay: FACS-based competition assay of PVRIG blocking; format and competitor not given
[5] = molecular target: T2, cynomolgus PVRIG on cells; assay: FACS, expi cPVRIG over expi parental cells, 3.3ug/ml; remark: listed apart in the source
[6] = molecular target: T2, cynomolgus PVRIG on cells; assay: FACS, cyno PBMC, NK cells, 10ug/ml
[7] = molecular target: T2, cynomolgus PVRIG on cells; assay: FACS, cyno PBMC, CD8+ T cells, 10ug/ml
[8] = molecular target: T2, cynomolgus PVRIG on cells; assay: FACS, cyno PBMC, NK cells, 10ug/ml; remark: listed apart in the source
human PVRIG on cells [9] = molecular target: T1, human PVRIG on cells; assay: FACS, human PBMC, CD8+ T cells, 10ug/ml
human PVRIG on cells [10] = molecular target: T1, human PVRIG on cells; assay: FACS, human PBMC, CD56 int. NK cells, 10ug/ml; remark: listed apart in the source
human PVRIG on cells [11] = molecular target: T1, human PVRIG on cells; assay: FACS, HEK hPVRIG cells (HEK OE)
[12] = molecular target: T3, PVRIG (FACS-based competition assay of …); assay: FACS-based competition assay of PVRIG blocking; format and competitor not given; remark: listed apart in the source
human PVRIG on cells [13] = molecular target: T1, human PVRIG on cells; assay: FACS, human PBMC, CD8+ T cells, 10ug/ml; remark: listed apart in the source
human PVRIG on cells [14] = molecular target: T1, human PVRIG on cells; assay: FACS, HEK hPVRIG over HEK parental cells, 3.3ug/ml
[15] = molecular target: T2, cynomolgus PVRIG on cells; assay: FACS, cyno PBMC, CD8+ T cells, 10ug/ml; remark: listed apart in the source
Mouse TIGIT-His = molecular target: T4, Mouse TIGIT-His; assay: SPR (ProteOn), Mouse TIGIT-His
Cyno TIGIT-His = molecular target: T7, Cyno TIGIT-His; assay: SPR (ProteOn), Cyno TIGIT-His
T7 construct: also called cyno TIGIT monomer (prepared in-house); C-terminal HIS-tagged cyno TIGIT ECD recombinant protein
T7 sequence (ECD with C-terminal His tag, as listed by the source): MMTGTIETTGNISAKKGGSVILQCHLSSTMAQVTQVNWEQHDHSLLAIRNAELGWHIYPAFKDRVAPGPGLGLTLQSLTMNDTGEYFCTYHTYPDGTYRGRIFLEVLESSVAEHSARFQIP

cyno TIGIT on cells [16] = molecular target: T8, cyno TIGIT on cells (cynomolgus macaque); assay: FACS titration of AF647-labelled mAb on cyno effector memory CD8+ T cells, Cyno Donor 3; isotype gMFI subtracted
T8 construct: whole, on cells; also called Expi293 cyno TIGIT over-expressing cells

cyno TIGIT on cells [17] = molecular target: T8, cyno TIGIT on cells; assay: FACS titration of AF647-labelled mAb on cyno effector memory CD8+ T cells, Cyno Donor 1; isotype gMFI subtracted
human TIGIT on cells = molecular target: T5, human TIGIT on cells; assay: flow cytometry of fab; MFI on human TIGIT over-expressing Expi293 / MFI on parental Expi293
cyno TIGIT on cells [18] = molecular target: T8, cyno TIGIT on cells; assay: flow cytometry of fab; MFI on cyno TIGIT over-expressing Expi293 / MFI on parental Expi293
[19] = molecular target: T6, human TIGIT ECD with C-terminal …; assay: SPR (ProteOn), Human TIGIT-His

| Binder | gMFIr Jurkat (human PVRIG on cells [1]) | gMFIr Expi cyno OE/par [2] | gMFIr Human CD56 int. NK (human PVRIG on cells [3]) | IC50 [4] [nM] | gMFIr Expi cyno OE/par [5] | gMFIr Human CD8+ T cells (human PVRIG on cells [9]) | gMFIr Human CD56 int. NK (human PVRIG on cells [10]) | EC50 (human PVRIG on cells [11]) [nM] | IC50 [12] [nM] | gMFIr Human CD8+ T cells (human PVRIG on cells [13]) | gMFIr HEK OE/par (human PVRIG on cells [14]) | further results |
| --- | --- | --- | --- | --- | --- | --- | --- | --- | --- | --- | --- | --- |
| B1 | 7.37 | 4.25 | 3.15 | 19 | 4.25 | 3.35 | 3.15 | 0.27 | 19 | 3.35 | 45.3 | gMFIr Cyno NK cells [6]: 1.18; gMFIr Cyno CD8+ T cells [7]: 1.09; gMFIr Cyno NK cells [8]: 1.18; gMFIr Cyno CD8+ T cells [15]: 1.09 |
| B2 |  |  |  |  |  |  |  |  |  |  |  | binding result (Mouse TIGIT-His): no binding (tested: not printed); Kd (Cyno TIGIT-His): 1.13 nM; Kd (cyno TIGIT on cells [16]): 19 nM; Kd (cyno TIGIT on cells [17]): 25 nM |
| B3 | 2.23 | 1 | 3.05 | 36.1 | 1 | 1.42 | 3.05 | 2.6 | 36.1 | 1.42 | 29.7 |  |
| B4 | 2.1 | 0.9 | 1.6 | 58.3 | 0.9 | 1.29 | 1.6 | 1.34 | 58.3 | 1.29 | 27.7 |  |
| B5 |  |  |  |  |  |  |  |  |  |  |  | MFIr (OE/Par) hTIGIT (human TIGIT on cells): 95; MFIr (OE/Par) cTIGIT (cyno TIGIT on cells [18]): 30 |
| B6 |  |  |  |  |  |  |  |  |  |  |  | Kd (Mouse TIGIT-His): 25 nM; Kd (Cyno TIGIT-His): 0.337 nM; Kd [19]: 6.4 pM; Kd (cyno TIGIT on cells [16]): 25 nM; Kd (cyno TIGIT on cells [17]): 31 nM |
| B7 |  |  |  |  |  |  |  |  |  |  |  | MFIr (OE/Par) hTIGIT (human TIGIT on cells): 130; MFIr (OE/Par) cTIGIT (cyno TIGIT on cells [18]): 22 |
